This series can be described thus: soluble on expression in E. coli; label from the status in PepcDB or PDB records.
For the sequence “MGSDKIHHHHHHVTNKRPIAFDATPDTLRRSLVLSAAAASGLGLLPGAMRDARAQSFPPLGNFPAGTEGNSVFVGVSVPLTGAFSAEGKDQQLGFELAFEHLNSGKLAGKIPELKGKGVLGKTITFGVVDTEAKAESAIQGQTRFLRNNKAILMTGCYSSAVTVALGKLAQREKVLYMAGPAGSDDVTGKDCQRYSFRSQPSTTMASRALAPVLAERLGKGKKVAYLVPDYTFGHTQFESMARLTEPMGWKTVSKQVCPIGTADFSTYLLNIANSGADVFVNCTVGNDCSVSIKQAKNFGVMKNAALVVPTLQPFLAQQLGPEVTQDILGVMDFWWSLAESNELAKQFVDDFQAKHNYKPYWPAHIAYSQMLIWAVAVERAKTFYPPEVIKALEARVPIRTTLGDVMYRPEDHQLVRPVPVMRGKKPSEMKSKDDYYEVIKMIPGADAVTPLDQGTCKMGELT”, the “soluble on expression in E. coli” value is on record as “not soluble”.

Turning to “MLYNKSSFCLWKETIVPIILDSDVLEVAEYVYKTRLSQPYTEVGSEWEYNYKNPTATFAKGDGHNLQRYITIDGKQLHRPIHGLAHTMRTLMYSQLMYCSSKKQPSPHVCQDGRTIADLSELDLKKINIAQLFFVAGRESEASYGDAYHRYHLYGAKQFEEYARKHLTHLFSEEEIRLYSRCIEDRVGDSFDGTPEGYIIHLSHMIDLMRCKSPVEVFLGHSKGVSGIVPTLIHLFGKQDGLDIMHYARGLFAATGEAVPYIDSSEWPHLGVDLSRVQRALSIVGDINVPGQEADSKKTAQAGFSVDGCYSALTSVPTPSWYEKELKEIDDEKIDVKEVDDREIEKEHEIVVPSQATTPLSTVKTDSFVEKLLKPFMIWKKPEVQTTQPTTEKTNKP”, the “soluble on expression in E. coli” value is recorded as “not soluble”.

For “MDVVFPKMPHHQTVTNVRVPSSRGSAISRAHSEHRRSIDRSEPRHHHRHHVHSETPELPYTRGISKTPSVREYNVKREGQRSPSRSHRSERSPSEVRIPVTTTHTRPIAKRQSPEELDYGRFADKSQQNRFPGDHQAREEDLPYTRGISKTPSNQDSRSERTPCSDIHIPYNNPEKERAYQQSERSSYRSHKSVTPSEKSLPRNSETPELHYTRGISKTPSDRVEKSRYLSRGVSTPHTPSEVHIPYNNPEKERAYQQSHRPSSPKRRPSGRTNSPNKSSSSSKARPSAAPLEEIVHIKERYERDETIRRFFPTTTAV”, the “soluble on expression in E. coli” value was “not soluble”.

On to “MSLNVSHFFPETFVSLVKDMLTKTDGSTTKAIETLIGGKAEIEVFQQNNIDYDKLSPEEARLFQRDDDILFRTSSLKTGDDYLSYNYVYVKTNLLPPAIKQDLQEERLPIGKIIAELESRREIFSTGDCLGKHFTQLVPVSADRTYAFKKYQIISGRQCMFYVCELFDLEKICKLTAGEGHHHHHH”, for which the “soluble on expression in E. coli” value is on record as “not soluble”.

For “MARMKFLCDTKRCIECNGCVTACKNENDDALEWGIQRRRVVTLNDGEPGENSISVACMHCTDAPCMAVCPADCFVHTEDGIVLHNKDLCIGCGYCLFACPFGAPQFPKQAAFGERGKMDKCTFCAGGPETEPGSEEERRKYGANRIAEGKLPMCASLCSTKALLAGDAEKISDIFRQRVVERGAKGAGWTNGEDLAYDATRS”, the “soluble on expression in E. coli” value is recorded as “not soluble”.

Take “SNEFFPVDDNNEGTDADMKEDSEGPEPKGLSPPHKKSKAKKPESSKDSSEDESGPEEKQTAEEMEGQSQEADGVNTTPVPSPASEDKAEVHKDEADSAKDDNTVKDSDMTNHSVCDQELPNGQENDSAKSEGKTEAESPSSSMETEDLSPNQEDAAIVEQPEVIPLIDDQEAQEGGEAQGKDAPAVFAESQGSSEAENTSGPDVDMNSQVDGVNEPTESLQEDLQ”: the “soluble on expression in E. coli” value was “not soluble”.

Take “MNALPPAIFLMGPTAAGKTDLAIELSKVLPCELISVDSALVYRGMDIGTAKPSKAQLAEFPHRLIDILDPAQSYSAADFRSDALAAMAQITARGNIPLLVGGTMLYFKALLDGLADMPAANAAVRAQLEADAQAFGWQSLHDQLAVVDPVSAARIHPNDPQRLIRALEVYRVSGMSMTAHREQQTAQSTEAAASGCQQLPYTVANLAIAPADRKVLHQRIALRFEQMLDQGFLDEVLALRSRGDLHAGLPSIRAVGYRQVWDHLDGKLTREEMQERGIIATRQLAKRQFTWLRSWDDLHWLDSLASDNLSRALKYLGSVSILSLEHHHHHH”: the “soluble on expression in E. coli” value was “not soluble”.

For “SSTWLSEAEMIALAGLLQMSQGEQTPNCVASSLPSTSCPDPVSVSEDPGPSGDQSCSGTDT”, the “soluble on expression in E. coli” value is reported as “soluble”.

The values are drawn from the DeepSol protein solubility set.
